Assays:
[1] = molecular target: T1, murine PDGFRB ectodomain (mPDGFRB-ECD) (Mus musculus, UniProt P05622); test: Binding assay on murine PDGFRB ectodomain; details: IRDye800-conjugated, FIG. 15D
T1 construct: varied across murine PDGFRB ectodomain (mPDGFRB-ECD), rPDGFRB-ECD and hPDGFRB-ECD
T1 sequence (P05622 32-531 limits assumed): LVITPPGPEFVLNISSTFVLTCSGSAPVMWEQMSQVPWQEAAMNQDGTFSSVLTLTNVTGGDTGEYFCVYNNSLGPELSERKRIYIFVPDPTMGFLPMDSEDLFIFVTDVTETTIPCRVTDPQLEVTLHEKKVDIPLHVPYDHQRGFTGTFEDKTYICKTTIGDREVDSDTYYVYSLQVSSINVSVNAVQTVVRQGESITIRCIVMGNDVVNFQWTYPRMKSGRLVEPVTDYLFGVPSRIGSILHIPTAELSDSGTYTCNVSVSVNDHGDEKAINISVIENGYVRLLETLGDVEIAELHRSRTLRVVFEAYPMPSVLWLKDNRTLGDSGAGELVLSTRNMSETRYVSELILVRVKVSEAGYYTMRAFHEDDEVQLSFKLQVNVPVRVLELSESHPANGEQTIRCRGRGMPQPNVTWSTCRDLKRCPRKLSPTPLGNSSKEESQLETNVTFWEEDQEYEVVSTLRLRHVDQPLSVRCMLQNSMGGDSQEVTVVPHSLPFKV

LX-2 cells = test: Kinetic internalization assay on LX-2 cells; format: cell-based, human; details: FIG. 19 right panel
Procedure: (§1) The rate of internalization (endocytic rate constant, ke) of biparatopic constructs 13F11-13E8 and 13E8-13F11 was determined with a kinetic internalization assay on SCC-hIGF2R and SCC-rIGF2R cells. Briefly, 10 nM of IRD800CW conjugated 13F11-13E8 or 13E8-13F11 (conjugation method as described in example 10.2) was added to hIGF2R expressing SCC cells or rIGF2R expressing SCC cells and incubated at 37° C. for different time points up to 12 minutes. Internalization was then purposely halted by putting the cells on ice. Subsequently, cells were washed with cold PBS and the non-internalized VHH construct (bound fraction) was separated from the internalized construct (internalized fraction) using an acid-wash, as described above, after which the fluorescence of both fractions were measured. Both constructs internalize with similar endocytic rate constants in SCC-hIGF2R cells (ke around 1.5 min-1) and in SCC-rIGF2R cells (ke around 0.7 min-1) (FIGS. 17A and B, respectively).
To determine the rate of internalization of the VHH construct SP02P-SP26P, kinetic internalization assays on hPDGFRB expressing SCC cells and LX-2 cells were performed using a similar method as described for the IGF2R constructs in example 11.1.

SCC-hPDGFRB cells = test: Kinetic internalization assay on SCC-hPDGFRB cells; format: cell-based, human
Procedure: as §1
To determine the rate of internalization of the VHH construct SP02P-SP26P, kinetic internalization assays on hPDGFRB expressing SCC cells and LX-2 cells were performed using a similar method as described for the IGF2R constructs in example 11.1. […]

SCC-rPGDFRB cells = test: Kinetic internalization assay on SCC-rPGDFRB cells; format: cell-based; details: IRDye800 conjugates, cells expressing rat PDGFRB
Procedure: as §1
To confirm improved internalization of biparatopic VHH constructs compared to the monomeric individual VHH components, kinetic internalization assays were performed using SCC-rPGDFRB and on SCC-hPDGFRB cells, using a similar method as described for the IGF2R constructs in example 11.1. […]

rPDGFRB-ECD = molecular target: T2, rPDGFRB-ECD (Rattus norvegicus, UniProt Q05030); test: Binding assay on rPDGFRB-ECD; details: IRDye800-conjugated, FIG. 15D
T2 sequence (Q05030 32-531 limits assumed): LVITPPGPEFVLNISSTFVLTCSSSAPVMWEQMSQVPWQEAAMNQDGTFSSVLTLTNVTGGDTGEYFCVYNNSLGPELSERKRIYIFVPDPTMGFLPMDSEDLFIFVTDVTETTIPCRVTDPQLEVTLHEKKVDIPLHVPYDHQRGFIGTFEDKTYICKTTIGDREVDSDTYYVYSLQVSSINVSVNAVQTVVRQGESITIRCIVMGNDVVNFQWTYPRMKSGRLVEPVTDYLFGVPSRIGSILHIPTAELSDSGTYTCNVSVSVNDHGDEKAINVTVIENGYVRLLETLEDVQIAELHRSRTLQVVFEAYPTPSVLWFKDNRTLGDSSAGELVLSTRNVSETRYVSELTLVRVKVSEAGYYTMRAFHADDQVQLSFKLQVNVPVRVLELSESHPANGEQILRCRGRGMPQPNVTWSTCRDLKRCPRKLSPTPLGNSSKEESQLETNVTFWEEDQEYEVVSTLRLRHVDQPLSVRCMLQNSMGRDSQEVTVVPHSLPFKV
Procedure: (§2) The 18 unique hPDGFRB binders from libraries 1 and 2, and the 11 unique rPDGFRB binders from libraries 3 and 4 (Example 2.2, FIGS. 5 and 6) were produced and purified as described in examples 3 and 4. Then, the apparent affinities were determined with binding assays on hPDGFRB-ECD and rPDGFRB-ECD, respectively, the setup described in example 5.1. Results are summarized in FIGS. 5 and 6 for the hPDGFRB and rPDGFRB VHHs, respectively.
As Shown in FIG. 15C), the binding affinity of this construct for both hPDGFRB and rPDGFRB are below 5 nM. […] These observations make SP02P (or similar VHH) and SP26P (or similar VHH) particularly promising for use in the present invention.

hPDGFRB-ECD = hPDGFRB-ECD (Homo sapiens, UniProt P09619); test: Binding assay on hPDGFRB-ECD; details: IRDye800-conjugated, FIG. 15D
Procedure: The 15 unique hIGF2R-binding VHH (Example 2.1, FIG. 2) were produced and purified as described in examples 3 and 4. The apparent affinities were determined through binding assay on immobilized hIGF2R-ECD. Briefly, three-fold serial dilution series, starting from 1 μM, of each VHH were plated onto hIGF2R-ECD coated plates. VHH were allowed to bind for two hours after which plates were washed. Then, bound VHH was detected using a VHH-specific IgG antibody, followed by an IRD800CW-conjugated IgG-specific antibody. Plates were read out by fluorimetry.
as §2
Based on their high affinity and binding to non-overlapping hPDGRB epitopes, various biparatopic constructs were prepared based on VHHs SP02P, SP12P SP14P, SP26P and SP28P. The constructs were produced as described in example 7.1. and subjected to binding assay.
As Shown in FIG. 15C), the binding affinity of this construct for both hPDGFRB and rPDGFRB are below 5 nM. […]

Chain of hPDGFRB-ECD (P09619 33-532 limits assumed): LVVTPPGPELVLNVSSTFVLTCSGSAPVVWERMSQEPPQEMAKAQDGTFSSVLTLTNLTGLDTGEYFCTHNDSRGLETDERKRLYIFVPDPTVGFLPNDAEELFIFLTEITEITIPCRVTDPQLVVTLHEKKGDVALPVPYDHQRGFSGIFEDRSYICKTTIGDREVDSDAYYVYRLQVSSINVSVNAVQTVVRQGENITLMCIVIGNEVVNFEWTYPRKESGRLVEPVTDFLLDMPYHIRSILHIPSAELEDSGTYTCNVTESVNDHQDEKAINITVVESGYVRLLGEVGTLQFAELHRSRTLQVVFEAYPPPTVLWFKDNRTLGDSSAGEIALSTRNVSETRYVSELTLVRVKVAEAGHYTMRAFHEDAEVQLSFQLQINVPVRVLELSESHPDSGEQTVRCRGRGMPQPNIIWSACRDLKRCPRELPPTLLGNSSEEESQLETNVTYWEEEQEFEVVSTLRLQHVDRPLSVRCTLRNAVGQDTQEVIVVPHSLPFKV

affinity for mPDGFRB-ECD [1]: high affinity
affinity for rPDGFRB-ECD (rPDGFRB-ECD): high affinity
affinity for hPDGFRB-ECD (hPDGFRB-ECD): high affinity
B1: SP02P-SP26P: biparatopic PDGFRB VHH construct combining SP02P and SP26P (protein)
chain: EVQLVESGGGLVQAGGSLRLSCAASESISSIEQMGWFRQAPGKQRALVAINTYGGRTVYTNSVEGRFTMSRDSAKNMVYLQMTSLEPEDTAVYYCYAQTTAWRGGVWGQGTQVTVSSGGGGSGGGGSGGGGSEVQLVESGGGLVQAGGSLRLSCAASGRSFSSSVMGWFRQTPGKEREFVAATRWTAASTHYADSVKGRFTISRDHAENAVFLQMNSLKPEDTAVYYCAAGNYLDTAQYRYNYWGQGTQVTVSS
modifications: left off: small tags and cut ends
internalization (LX-2 cells): observed
internalization (SCC-hPDGFRB cells; FIG. 19 left panel): observed
internalization rate compared to monomeric VHH SP02 and SP26 (SCC-hPDGFRB cells; IRDye800 conjugates, cells expressing human PDGFRB): 5-10 fold
internalization rate compared to monomeric VHH SP02 and SP26 (SCC-rPGDFRB cells): 5-10 fold

Source: US20240325562A1, “INTERNALIZING BINDING MOLECULES” (LinXis B.V., priority 2020, published 2024)
